Laboratory results taken from patent EP3964526A1 (Novartis AG, dated 2022).

How the values were obtained:
[1] = target: VEGF (as used in the VEGFR competition ELISA); assay: competition ELISA against hVEGR1, EC50 ratio to reference Luc
[2] = target: T1, recombinant human VEGF165 (PeproTech EC Ltd.) (human, UniProt P15692-4 27-191); assay: SPR BIAcore T100, hVEGF165 amine-coupled on CM4 chip, scFv as analyte
T1 construct: Amine-coupled to a CM4 sensor chip; also called hVEGF165

[3] = target: VEGF (as used in the VEGFR competition ELISA); assay: competition ELISA against hVEGR1, EC50 ratio to reference Luc; first of two values in the cell
[4] = target: VEGF (as used in the VEGFR competition ELISA); assay: competition ELISA against hVEGR1, EC50 ratio to reference Luc; second of two values in the cell
[5] = target: T2, Human TNFa N-his trimers (human, UniProt P01375 77-233); assay: SPR BIAcore T100, His-tagged human TNF trimers captured on NTA chip, scFv as analyte
T2 construct: Captured at 5 nM on an NTA sensor chip by the N-terminal his-tags; also called His-tagged TNF (produced at ESBATech); not shown: N-terminal his-tag
T2 sequence (P01375 77-233 limits assumed): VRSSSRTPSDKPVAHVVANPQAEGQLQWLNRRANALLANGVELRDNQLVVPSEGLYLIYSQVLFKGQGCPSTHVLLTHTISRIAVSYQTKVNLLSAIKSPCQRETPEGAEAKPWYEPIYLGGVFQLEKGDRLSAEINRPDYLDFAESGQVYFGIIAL

T1 sequence (P15692 other isoform, or with tags, fused parts or gaps limits assumed): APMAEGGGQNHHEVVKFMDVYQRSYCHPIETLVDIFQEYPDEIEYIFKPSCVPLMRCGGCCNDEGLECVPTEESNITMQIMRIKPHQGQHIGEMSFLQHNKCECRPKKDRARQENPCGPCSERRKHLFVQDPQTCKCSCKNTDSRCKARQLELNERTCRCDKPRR
Chain of VEGF (as used in the VEGFR competition ELISA) (P15692 whole entry): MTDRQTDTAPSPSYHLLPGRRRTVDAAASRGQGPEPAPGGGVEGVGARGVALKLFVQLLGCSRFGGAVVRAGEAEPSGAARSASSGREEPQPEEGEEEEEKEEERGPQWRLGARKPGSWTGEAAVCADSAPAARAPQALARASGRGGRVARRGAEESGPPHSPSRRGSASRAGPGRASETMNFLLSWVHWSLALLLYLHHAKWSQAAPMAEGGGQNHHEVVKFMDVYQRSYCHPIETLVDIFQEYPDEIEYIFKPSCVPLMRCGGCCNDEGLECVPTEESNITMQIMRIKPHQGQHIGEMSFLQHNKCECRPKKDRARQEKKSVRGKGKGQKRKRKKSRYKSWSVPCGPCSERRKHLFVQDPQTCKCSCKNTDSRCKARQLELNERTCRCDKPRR

B1: 509-max (scFv)
chain: EIVMTQSPSTLSASVGDRVIITCQASQNIRIWLSWYQQKPGKAPKLLIYKASTLESGVPSRFSGSGSGTEFTLTISSLQPDDFATYYCQNNAHYSTNGGTFGQGTKLTVLGGGGGSGGGGSGGGGSGGGGSEVQLVESGGGLVQPGGSLRLSCTASGFSLSSYYMCWVRQAPGKGLEWVGCLDYVGDTDYASWAKGRFTISKDASKNTVYLQMNSLRAEDTAVYYCARTDDSRGWGLNIWGQGTLVTVSS
[1]
  Rel. activity hVEGR1 comp. ELISA (EC50Luc[nM]/EC50test[nM]): 13 ratio
[2]
  Kd: 1.21 nM
  koff: 0.00272 s⁻¹
  kon: 2.26e+06 M⁻¹ s⁻¹

B2: 511-min (scFv, V domains shown)
VH: EVQLVESGGGLVQPGGSLRLSCAASGFSLNTYYMNWVRQAPGKGLEWVSIIAPDDTTYYASWAKSRFTISRDNSKNTLYLQMNSLRAEDTAVYYCAKSGDTTAWGADIWGQGTLVTVSS
VL: EIVMTQSPSTLSASVGDRVIITCQASQSINIWCSWYQQKPGKAPKLLIYRASTLASGVPSRFSGSGSGAEFTLTISSLQPDDFATYYCQANYAYSAGYGAAFGQGTKLTVL
[1]
  Rel. activity hVEGR1 comp. ELISA (EC50Luc[nM]/EC50test[nM]): 0.7 ratio
[2]
  Kd: 2.53 nM
  koff: 0.00128 s⁻¹
  kon: 505000 M⁻¹ s⁻¹

B3: 511-max (scFv)
chain: EIVMTQSPSTLSASVGDRVIITCQASQSINIWLSWYQQKPGKAPKLLIYRASTLASGVPSRFSGSGSGTEFTLTISSLQPDDFATYYCQANYAYSAGYGAAFGQGTKLTVLGGGGGSGGGGSGGGGSGGGGSEVQLVESGGGLVQPGGSLRLSCTVSGFSLNTYYMNWVRQAPGKGLEWVGIIAPDDTTYYASWAKSRSTISRDTSKNTVYLQMNSLRAEDTAVYYCARSGDTTAWGADIWGQGTLVTVSS
[1]
  Rel. activity hVEGR1 comp. ELISA (EC50Luc[nM]/EC50test[nM]): 8 ratio
[2]
  Kd: 0.0667 nM
  koff: 4.4e-05 s⁻¹
  kon: 659000 M⁻¹ s⁻¹

B4: 567-min (scFv)
chain: EIVMTQSPSTLSASVGDRVIITCQADQSIYIWLSWYQQKPGKAPKLLIYKASTLESGVPSRFSGSGSGAEFTLTISSLQPDDFATYYCQNNAHYSTNGGTFGQGTKLTVLGGGGGSGGGGSGGGGSGGGGSEVQLVESGGGLVQPGGSLRLSCAASGFSLSDYYMCWVRQAPGKGLEWVSCLDYFGSTDDASWAKGRFTISRDNSKNTLYLQMNSLRAEDTAVYYCAKTDDSRGWGLNIWGQGTLVTVSS
[1]
  Rel. activity hVEGR1 comp. ELISA (EC50Luc[nM]/EC50test[nM]): 57 ratio
[2]
  Kd: 0.23 nM
  koff: 0.000461 s⁻¹
  kon: 2.01e+06 M⁻¹ s⁻¹

B5: 567-max (scFv)
chain: EIVMTQSPSTLSASVGDRVIITCQADQSIYIWLSWYQQKPGKAPKLLIYKASTLESGVPSRFSGSGSGTQFTLTISSLQPDDFATYYCQNNAHYSTNGGTFGQGTKLTVLGGGGGSGGGGSGGGGSGGGGSEVQLVESGGGLVQPGGSLRLSCSVSGFSLSDYYMCWVRQAPGKGLEWVGCLDYFGSTDDASWAKGRFTISKDTSKNTVYLQMNSLRAEDTAVYYCARTDDSRGWGLNIWGQGTLVTVSS
[3]
  Rel. activity hVEGR1 comp. ELISA (EC50Luc[nM]/EC50test[nM]): 15.7 ratio
[2]
  Kd: 0.188 nM
  koff: 0.000226 s⁻¹
  kon: 1.2e+06 M⁻¹ s⁻¹
[4]
  Rel. activity hVEGR1 comp. ELISA (EC50Luc[nM]/EC50test[nM]): 54.5 ratio

B6: 578-min (scFv)
chain: EIVMTQSPSTLSASVGDRVIITCQASEIIHSWLAWYQQKPGKAPKLLIYLASTLASGVPSRFSGSGSGAEFTLTISSLQPDDFATYYCQNVYLASTNGANFGQGTKLTVLGGGGGSGGGGSGGGGSGGGGSEVQLVESGGGLVQPGGSLRLSCAASGFSLTDYYYMTWVRQAPGKGLEWVSFIDPDDDPYYATWAKGRFTISRDNSKNTLYLQMNSLRAEDTAVYYCAKGDHNSGWGLDIWGQGTLVTVSS
[1]
  Rel. activity hVEGR1 comp. ELISA (EC50Luc[nM]/EC50test[nM]): 4.8 ratio
[2]
  Kd: 9.01 nM
  koff: 0.0103 s⁻¹
  kon: 1.14e+06 M⁻¹ s⁻¹

B7: 578-max (scFv)
chain: EIVMTQSPSTLSASVGDRVIITCQASEIIHSWLAWYQQKPGKAPKLLIYLASTLASGVPSRFSGSGSGTQFTLTISSLQPDDFATYYCQNVYLASTNGANFGQGTKLTVLGGGGGSGGGGSGGGGSGGGGSEVQLVESGGGLVQPGGSLRLSCTASGFSLTDYYYMTWVRQAPGKGLEWVGFIDPDDDPYYATWAKGRFTISRDTSKNTVYLQMNSLRAEDTAVYYCAGGDHNSGWGLDIWGQGTLVTVSS
[3]
  Rel. activity hVEGR1 comp. ELISA (EC50Luc[nM]/EC50test[nM]): 35.5 ratio
[2]
  Kd: 0.439 nM
  koff: 0.000307 s⁻¹
  kon: 700000 M⁻¹ s⁻¹
[4]
  Rel. activity hVEGR1 comp. ELISA (EC50Luc[nM]/EC50test[nM]): 51.6 ratio

B8: EP43_min (scFv)
chain: EIVMTQSPSTLSASVGDRVIITCQASQSISDWLAWYQQKPGKAPKLLIYGASRLASGVPSRFSGSGSGAEFTLTISSLQPDDFATYYCQQGWSDSYVDNLFGQGTKLTVLGGGGGSGGGGSGGGGSGGGGSEVQLVESGGGLVQPGGSLRLSCAASGFSLSSGAMSWVRQAPGKGLEWVSVIISSGATYYASWAKGRFTISRDNSKNTLYLQMNSLRAEDTAVYYCAKGGPDDSNSMGTFDPWGQGTLVTVSS
[5]
  Kd: 5540 nM

B9: EP1_max (scFv)
chain: EIVMTQSPSTLSASVGDRVIITCQSTESVYKNNYLAWYQQKPGKAPKLLIYDASTLASGVPSRFSGSGSGTEFTLTISSLQPDDFATYYCAGYYRSGSGTANGSFGQGTKLTVLGGGGGSGGGGSGGGGSGGGGSEVQLVESGGGSVQPGGSLRLSCTVSGIDLSNDAISWVRQAPGKGLEWVAYISDWSIRYYANWAQGRFTISKDTSKNTVYLQMNSLRAEDTATYYCARGAPGAGDNGIWGQGTTVTVSS
[5]
  Kd: 56.9 nM

B10: EP6_max (scFv)
chain: EIVMTQSPSTLSASVGDRVIITCQASESIYSGLAWYQQKPGKAPKLLIYQASTLASGVPSRFSGSGSGTDFTLAISSLQPDDFATYYCQQGFGTSNVENPFGQGTKLTVLGGGGGSGGGGSGGGGSGGGGSEVQLVESGGGLVQPGGSLRLSCTVSGFSLSRYGVSWVRQAPGKGLEWVGTIGEAGRAYYANWARSRSTISRDTSKNTVYLQMNSLRAEDTAVYYCARGEVFNNGWGAFNIWGQGTLVTVSS
[5]
  Kd: 0.512 nM

B11: EP15_max (scFv)
chain: EIVMTQSPSTLSASVGDRVIITCQASENIYTSLAWYQQKPGKAPKLLIYSASTLASGVPSRFSGSGSGTEFTLTISSLQPDDFATYYCQQGFATSNVENPFGQGTKLTVLGGGGGSGGGGSGGGGSGGGGSEVQLVESGGGSVQPGGSLRLSCTVSGFSLSRYGVSWVRQAPGKGLEWVGAIGETGRAYYANWAKSRSTISRDTSKNTVYLQMNSLRAEDTATYYCARGEEFNNGWGAFNIWGQGTTVTVSS
[5]
  Kd: 1.48 nM

B12: EP19_max (scFv)
chain: EIVMTQSPSTLSASVGDRVIITCQASDNIYRGLAWYQQKPGKAPKLLIYDASTLQSGVPSRFSGSGSGTQFTLTISSLQPDDFATYYCLGVYGYSSDDGAAFGQGTKLTVLGGGGGSGGGGSGGGGSGGGGSEVQLVESGGGLVQPGGSLRLSCTVSGFSLNSNEISWVRQAPGKGLEWVGYIGNGGMTHYASWAKGRFTISRDTSKNTVYLQMNSLRAEDTAVYYCASSVEYTDLYYLNIWGQGTLVTVSS
[5]
  Kd: 2.91 nM

B13: EP34_max (scFv)
chain: EIVMTQSPSTLSASLGDRVIITCQSSQSVYGNIWMAWYQQKSGKAPKLLIYQASKLASGVPSRFSGSGSGAEFSLTISSLQPDDFATYYCQGNFNTGDRYAFGQGTKLTVLGGGGGSGGGGSGGGGSGGGGSEVQLVESGGGLVQPGGSLRLSCTASGFTISRSYWICWVRQAPGKGLEWVACIYGDNDITPLYANWAKGRFPVSTDTSKNTVYLQMNSLRAEDTAVYYCARLGYADYAYDLWGQGTLVTVSS
[5]
  Kd: 0.0286 nM

B14: EP35_max (scFv)
chain: EIVMTQSPSTLSASVGDRVIITCQASQSISNLLAWYQQKPGKAPKLLIVAASKLASGVPSRFSGSGSGTEFTLTISSLQPDDFATYYCQQGWSHTNVDNTFGQGTKLTVLGGGGGSGGGGSGGGGSGGGGSEVQLVESGGGSVQPGGSLRLSCTASGFSFSVGYWICWVRQAPGKGLEWVACIDAGTSGGTYYATWAKGRFTISKDTSKNTVYLQMNSLRAEDTATYYCARGVSSNGYYFKLWGQGTTVTVSS
[5]
  Kd: 0.194 nM

B15: EP42_max (scFv)
chain: EIVMTQSPSTLSASVGDRVIITCQSTESVYKNNYLAWYQQKPGKAPKLLIYDASTLASGVPSRFSGSGSGTEFTLTISSLQPDDFATYYCAGYYRSGFGTANGSFGQGTKLTVLGGGGGSGGGGSGGGGSGGGGSEVQLVESGGGSVQPGGSLRLSCTVSGIDLRNDAISWVRQAPGKGLEWVSYISDWGIKYYASWVKGRFTISKDTSKNTVYLQMNSLRAEDTATYYCARGAPGAGDNGIWGQGTTVTVSS
[5]
  Kd: 3.46 nM

B16: EP43_max (scFv)
chain: EIVMTQSPSTLSASVGDRVIIKCQASQSISDWLAWYQQKPGKAPKLLIYGASRLASGFPSRFSGSGSGAEFTLTISGLEPADFATYYCQQGWSDSYVDNLFGQGTKLTVLGGGGGSGGGGSGGGGSGGGGSEVQLVESGGGLVQPGGSLRLSCTVSGFSLSSGAMSWVRQAPGKGLEWVGVIISSGATYYASWAKGRFTISKDTSKNTVYLQMNSLRAEDTAVYYCARGGPDDSNSMGTFDPWGQGTLVTVSS
[5]
  Kd: 0.251 nM

B17: 509-min (scFv)
chain: EIVMTQSPSTLSASVGDRVIITCQASQNIRIWLSWYQQKPGKAPKLLIYKASTLESGVPSRFSGSGSGAEFTLTISSLQPDDFATYYCQNNAHYSTNGGTFGQGTKLTVLGGGGGSGGGGSGGGGSGGGGSEVQLVESGGGLVQPGGSLRLSCAASGFSLSSYYMCWVRQAPGKGLEWVSCLDYVGDTDYASWAKGRFTISRDNSKNTLYLQMNSLRAEDTAVYYCAKTDDSRGWGLNIWGQGTLVTVSS
[1]
  Rel. activity hVEGR1 comp. ELISA (EC50Luc[nM]/EC50test[nM]): 2.9 ratio
[2]
  Kd: 1.82 nM
  koff: 0.00114 s⁻¹
  kon: 623000 M⁻¹ s⁻¹
